Molecular target: T1, HemN-like radical SAM enzyme Swoo_2002 (Shewanella woodyi ATCC 51908, UniProt B1KQP7 1-448)
T1 construct: Swoo_2002, HemN-like radical SAM enzyme (counterpart of C10P) from a cryptic biosynthetic gene cluster of Shewanella woodyi ATCC 51908; The enzyme carries one [4Fe-4S] cluster per polypeptide after anaerobic reconstitution; also called C10P surrogate; c10P counterpart; source: E. coli Rosetta(DE3) (strain E. coli RoTB-SW), purified (Ni-NTA, desalination column)
T1 sequence (looked up): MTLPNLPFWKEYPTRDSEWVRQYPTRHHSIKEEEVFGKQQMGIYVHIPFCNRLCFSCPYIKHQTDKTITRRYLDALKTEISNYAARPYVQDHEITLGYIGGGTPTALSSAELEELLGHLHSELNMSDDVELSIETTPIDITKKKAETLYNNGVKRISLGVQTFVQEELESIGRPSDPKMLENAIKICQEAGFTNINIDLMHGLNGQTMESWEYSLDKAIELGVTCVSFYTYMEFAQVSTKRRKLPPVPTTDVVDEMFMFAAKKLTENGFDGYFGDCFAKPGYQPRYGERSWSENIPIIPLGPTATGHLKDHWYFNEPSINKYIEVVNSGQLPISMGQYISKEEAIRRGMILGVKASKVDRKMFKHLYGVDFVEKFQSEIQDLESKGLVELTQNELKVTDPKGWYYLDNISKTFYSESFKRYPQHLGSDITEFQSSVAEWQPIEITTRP
Experiment: ITC; 600 μM C10Q titrated into 200 μL of 60 μM Swoo_2002; PBS buffer pH 7.4 (after desalination, no glycerol, less than 5‰ DMSO); Malvern MicroCal ITC200
Details: both partners purified

- Kd: 8 µM
B1: methyltransferase C10Q (enzyme, Streptomyces zelensis NRRL 11183, UniProt A0A1W6EUU7 1-234, looked up)
chain: MTTEAPLLDLAERVPLDRPHGDIEAVRAYDLGMRRSALMAYKRPTERILAAYREGMTDFVDIGFNTGLLSLHVAGRLPDVAVSGVEEFPHLVDVAEDNLTLGVWANMAGDVEFEQSKLSRLPFPDDSADIVYSFSSLHRWRRPVETLREAARVCKPDGTVLIEDVNRLAEEGHITFILQFVKEGGDQFMRSLKAAYSLDQARDLLREAGLDDWHVVEEDLGLVISNRPVTPVSM
notes: SAM-dependent methyltransferase C10Q of the CC-1065 biosynthetic gene cluster, Streptomyces zelensis NRRL 11183; cloned from total DNA by 'similar procedures' as the intact c10P gene; source: E. coli Rosetta(DE3) (strain E. coli Ro37-Q), purified (Ni-NTA, desalination column)
